Measured values taken from article PMC4941208 (Journal of the American Chemical Society, 2015).
No end group written: not given here. *: point of attachment. GlcN = OC[C@H]1OC(O)[C@H](N*)[C@@H](O)[C@@H]1O; Acetyl(2-naphthyl) = O=C(Cc1ccc2ccccc2c1)*

T1: P-1 (Nap-FF-LGFNI, heptapeptide derivative)
T1 sequence (peptide, 2-(naphthalen-2-yl)acetic group (Nap) on the N-terminus): FFLGFNI


Experiments:
proteinase K = proteinase K (Parengyodontium album, UniProt P06873); format: in vitro ADME; conditions: 37 °C, 24 h
Chain of proteinase K (P06873 106-384): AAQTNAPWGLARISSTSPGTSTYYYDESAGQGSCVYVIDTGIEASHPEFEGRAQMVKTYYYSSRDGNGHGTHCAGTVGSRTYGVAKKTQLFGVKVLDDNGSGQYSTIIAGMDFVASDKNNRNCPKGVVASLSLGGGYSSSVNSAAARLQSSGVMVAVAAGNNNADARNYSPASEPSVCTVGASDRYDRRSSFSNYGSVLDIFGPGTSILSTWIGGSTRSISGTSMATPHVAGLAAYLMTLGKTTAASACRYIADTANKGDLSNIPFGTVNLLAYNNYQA

[1] = TEM of hydrogel and solutions; format: physicochemical; conditions: solution at 16.6 mM
hydrogel of P-1 = assay: Gel-sol transition and rheology; format: physicochemical; conditions: 7 days
[2] = molecular target: T1, P-1 (Nap-FF-LGFNI, heptapeptide derivative); assay: ITC
hydrogelation + TEM = molecular target: the molecule itself; assay: hydrogelation + TEM

| Molecule | Kd [2] | dH [2] | stoichiometry N [2] | other results |
| --- | --- | --- | --- | --- |
| GP-2: Glycoconjugate of nucleobase, peptide, saccharide: thymine at N-terminal and glucosamine at C-terminal of TTPV (thymine-TTPV-GlcN) | – | – | – | Hydrogelator P-1 remaining in mixture with 1 equiv of compound (proteinase K; hydrogel of P-1 + compound 1:1, proteinase K 3.2 U/mL): 45.0 ± 0.4%; Hydrogelator P-1 remaining in mixture with 4 equiv of compound (proteinase K; hydrogel of P-1 + compound 4:1, proteinase K 3.2 U/mL): 24.2 ± 2.0%; nanostructures in TEM images of the solution [1]: hardly any ordered nanostructures; G' times smaller than that of hydrogel of P-1 (hydrogel of P-1; 4 equiv of compound): about 300 times; Max G' of P-1 after addition of 4 equiv of compound (hydrogel of P-1; hydrogel of P-1 622 μM, pH 6.4, 300 μL + 50 μL 15 mM compound (4:1)): 0.06 Pa |
| thymine-TTPV [P-3 (thymine-TTPV, non-glycosylated control of GP-2)] | 235 µM | -3.13 kcal/mol | 1.38 | – |
| {Acetyl(2-naphthyl)}-FFLGFNI [P-1 (Nap-FF-LGFNI, heptapeptide derivative)] | – | – | – | binding result (hydrogelation + TEM): binds |
| thymine-TTPV-GlcN [GP-2 (thymine-TTPV-glucosamine, conjugate of nucleobase, peptide and saccharide)] | 262 µM | -4.11 kcal/mol | 1.04 | – |
